Laboratory results as given in patent publication US9289468B2, “Fusion protein comprising circularly permuted form of trail/Apo2L, coding gene and use thereof” (Beijing Sunbio Biotech Co. Ltd., priority 2011, dated 2016).
Entries after “also recorded” stand apart in the source; their conditions may differ.

How the values were obtained:
[1] = system: human lung cancer cell line NCI-H460; assay: TUNEL staining of apoptosis; type: cell-based; conditions: 15 ng/ml, 4 h
Protocol: FIG. 4. TUNEL assay of apoptosis of human lung cancer cell line NCI-H460 induced by NCPT-1.M1. The NCI-H460 cells were incubated with NCPT-1.M1 (15 ng/ml) for 4 h and then prepared as smears before TUNEL staining. […] In control group, nucleus remains intact, and no characteristic brown stained chromatins are seen (A).
During the process of apoptosis, the genomic DNA can be broken into double-strand, low molecular weight DNA fragments and high molecular weight single-stranded DNA fragments with broken ends (gaps), and these DNA strand gaps can be identified using enzyme-labeled nucleotide 3′-terminal labeling method. In the case of catalytic action of terminal deoxynucleotidyl transferase (TdT), FITC-labeled nucleotide can be incoporated to the free 3′ end nucleotide with template-independent manner, and thereby making the gap of the DNA strand labeled (TUNEL method). The labeling FITC can be recognized by horseradish peroxidase (POD) conjuncated sheep-derived Fab fragment. Upon development with DAB (3,3-diaminobenzidine), the cells stained as brown, which were apoptotic cells, were examined under light microscopy. TUNEL technique is a common method to detect apoptosis. The apoptosis upon incubation of NCI-H460 cell with NCPT-1.M1 was examined using TUNEL technique. […]

[2] = system: human COLO 205 xenograft tumor; assay: Inhibitory activity on human colon cancer xenograft tumors; type: in vivo, Balb/c nu mice
Protocol: 4 to 5 weeks old Balb/c nu mice ♂ (Institute of Experimental Animals, Chinese Academy of Medical Sciences) were subcutaneously inoculated with COLO 205 human colon tumor tissue pieces. When the tumor grew to the volume of 120 mm3, the tumor-bearing mice were divided into 4 groups (n=7/group), which were intraperitoneally injected with normal saline (negative control group), NCPT-1.M1 5 mg/kg, NCPT-1.M1 15 mg/kg and wtTRAIL 15 mg/kg once a day for 10 consecutive days. […] During the experiment, the tumor length diameter (a) and wide diameter (b) were measured every two days with a vernier caliper, and tumor volume (TV) was calculated according to the following formula: TV=½×a×b^2; From the above, the relative tumor volume (RTV) was calculated according to following formula: RTV=Vt/V0. Wherein V0 is the tumor volume measured on the day of the administration, but before administration (i.e., d0), and Vt is the tumor volume measured every time. The relative tumor proliferation rate T/C (%) is used as an evaluation index. Evaluation criteria: T/C (%)>40% means no effect; T/C (%)≦40% and the statistical significance of P<0.05 means being effective.
(§1) T/C %=RTVT/RTVC*100%. (RTVT: RTV of the treatment group; […]: RTV of the negative control group).

RPMI8226 xenograft tumor = assay: Inhibitory activity on xenograft tumor of human multiple myeloma; type: in vivo, athymic nude mice; conditions: 15 mg/kg i.p. once a day for 8 consecutive days
Protocol: FIG. 8. […] Athymic nude mice (Beijing Huafukang Biotechnology Co., Ltd.) were subcutaneously inoculated with RPMI8226 tumor cells (5×10^6/mouse). When the tumor grew to about 500 mm^3, the mice were divided into several groups, which were intraperitoneally injected with normal saline (control group), NCPT-1.M1 (15 mg/kg) and wild-type TRAIL (wtTRAIL, 15 mg/kg or 45 mg/kg) respectively once a day for 8 consecutive days. The tumor volumes were measured with a vernier caliper every two days.
Athymic nude mice (Beijing Huafukang Biotechnology Co., Ltd.) were subcutaneously inoculated with 5×10^6 RPMI8226 tumor cells/mouse. When the tumor grew to the volume of 500 mm3, the mice were divided into several groups, which were intraperitoneally injected with normal saline (negative control group), NCPT-1.M1 (15 mg/kg) and wtTRAIL (15 mg/kg or 45 mg/kg) once a day for 8 consecutive days. The tumor volumes were measured with a caliper every two days.

RPMI8226 tumor = assay: Combination with melphalan and prednisone on human multiple myeloma xenograft tumor; type: in vivo, Balb/c nu athymic nude mice; conditions: NCPT-1.M1 15 mg/kg ip x10 days; melphalan 0.75 mg/kg po x5 days; prednisone 10 mg/kg po x10 days
Protocol: Male Balb/c nu athymic nude mice (Beijing Huafukang Biotechnology Co., Ltd.) were subcutaneously inoculated with 5×10^6 RPMI8226 tumor cells/mouse. […] The tumor volumes were measured with a caliper every two days.

[3] = system: NCI-H460 human lung tumor; assay: Combination with paclitaxel and carboplatin on human lung cancer xenograft tumor; type: in vivo, Balb/c nu athymic nude mice; conditions: H460 tumor nude mice
Protocol: 5-6 weeks old Balb/c nu athymic nude mice ♂ (provided by Institute of Experimental Animals, Chinese Academy of Medical Sciences) were subcutaneously inoculated with NCI-H460 human lung tumor. When the tumor grew to the size of about 150 mm3, the mice were divided into following and administered: normal saline control group (ip.), NCPT-1.M1 monotherapy group (15 mg/kg, i.p., once a day for 9 consecutive days), chemotherapy group (PC regimen: paclitaxel 30 mg/kg i.p. and carboplatin 60 mg/kg i.p., administered once on the first day), NCPT-1.M1 combination chemotherapy group (administration manner and dosage of each drug are same as the above). During the experiment, the tumor length diameter (a) and wide diameter (b) were measured every two days with a vernier caliper, and tumor volume (, TV) is calculated according to the following formula: TV=½×a×b^2. From the above, the relative tumor volume (RTV) was calculated according to following formula: RTV=Vt/V0. Wherein V0 is the tumor volume measured on the day of the administration, but before administration (i.e., d0), and Vt is the tumor volume measured every time. The relative tumor proliferation rate T/C (%) is used as an evaluation index.
as §1

[4] = 5 mg/kg i.p. once a day for 10 days
[5] = 15 mg/kg i.p. once a day for 10 days
[6] = NCPT-1.M1 15 mg/kg i.p. x9 days, paclitaxel 30 mg/kg, carboplatin 60 mg/kg i.p. once day 1

B1: NCPT-1.M1: MG+His6+NCPT-1 fusion protein, SEQ ID NO: 5 (protein)
chain: MGHHHHHHTLSSPNSKNEKALGRKINSWESSRSGHSFLSNLHLRNGELVIHEKGFYYIYSQTYFRFQEEIKENTKNDKQMVQYIYKYTSYPDPILLMKSARNSCWSKDAEYGLYSIYQGGIFELKENDRIFVSVTNEHLIDMDHEASFFGAFLVGGGGGGRVAAHITGTRGRSNT
modifications: NCPT-1.M1 polypeptide sequence
For B1, the “apoptosis by TUNEL staining” value [1] was “a large number of NCI-H460 cells experience apoptosis; also recorded: Almost all of the tumor cells exhibit characteristic of apoptosis”, the “relative tumor volume RTV” value [2, 4] was 1.39 and the “tumor proliferation rate T/C(%)” value [2, 4] was 29.89%. The “Tumor volume TV beginning” value [2, 4] was 117 ± 20.4 mm^3, the “Tumor volume TV ending” value [2, 4] was 197 mm^3 and the “relative tumor volume RTV” value [2, 5] was 0.12. The “Tumor volume TV beginning” value [2, 5] was 118 ± 21.0 mm^3, the “Tumor volume TV ending” value [2, 5] was 15 mm^3 and the “evaluation of efficacy (T/C ≦40% and P<0.05 means being effective)” value ([2]; both dosage groups of NCPT-1.M1 (5, 15 mg/kg), wtTRAIL 15 mg/kg) was “effective”. For the same molecule, the “Tumor growth rate compared with wtTRAIL 45 mg/kg” value (RPMI8226 xenograft tumor) was “significantly lower than that of TRAIL group with a dose of 45 mg/kg; also recorded: significantly lower than that of wtTRAIL group with a dose of 45 mg/kg”, the “mice in which the tumors completely disappeared” value (RPMI8226 tumor) was 16% and the “Body weight(g) begining” value [3, 6] was 19.9 ± 3.08 g. The “Body weight(g) ending” value [3, 6] was 20.9 ± 3.32 g, the RTV ([3]; same regimens) was 7.32 ± 3.736 and the T/C ([3]; same regimens) was 43.9%. The “Tumor size(mm^3) begining” value ([3]; same regimens, begining) was 156 ± 82.6 mm^3 and the “Tumor size(mm^3) ending” value ([3]; same regimens, ending) was 867 ± 255.7 mm^3.
